Source: publication PMC12344411, “Cytosolic- and membrane-localized oxidized indole-3-acetic acid formation regulates developmental auxin transients” (Plant physiology, 2025)

Assays:
[1] = biological target: TIR1 (Arabidopsis thaliana) (UniProt Q570C0); test: BLI; conditions: cited from earlier work
[2] = biological target: TIR1 (Arabidopsis thaliana) (UniProt Q570C0); test: BLI; conditions: cited from earlier work; remark: listed apart in the source
TIR1 = biological target: T1, TIR1 (Arabidopsis thaliana, UniProt Q570C0); test: synthetic yeast system, TIR1-dependent degradation of YFP-IAA7 and YFP-IAA17 by flow cytometry; type: cell-based
T1 construct: with IAA7
T1 sequence (Q570C0 1-594): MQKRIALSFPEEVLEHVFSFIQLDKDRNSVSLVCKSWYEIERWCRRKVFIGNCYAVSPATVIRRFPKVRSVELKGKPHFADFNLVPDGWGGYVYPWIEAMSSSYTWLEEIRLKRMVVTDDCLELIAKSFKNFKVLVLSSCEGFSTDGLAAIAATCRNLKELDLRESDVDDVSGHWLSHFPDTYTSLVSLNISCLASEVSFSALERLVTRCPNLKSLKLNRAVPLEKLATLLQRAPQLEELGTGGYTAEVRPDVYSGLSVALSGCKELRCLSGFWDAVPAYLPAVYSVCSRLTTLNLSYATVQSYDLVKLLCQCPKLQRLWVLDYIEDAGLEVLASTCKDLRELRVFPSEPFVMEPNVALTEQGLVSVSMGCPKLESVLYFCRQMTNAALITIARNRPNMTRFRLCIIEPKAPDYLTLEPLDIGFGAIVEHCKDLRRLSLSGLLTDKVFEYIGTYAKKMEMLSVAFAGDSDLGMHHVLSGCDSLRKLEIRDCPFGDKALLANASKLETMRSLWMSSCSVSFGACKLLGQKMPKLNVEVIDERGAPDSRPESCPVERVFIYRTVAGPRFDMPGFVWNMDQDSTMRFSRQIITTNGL
T1 sequence (Q38825 1-243 partner): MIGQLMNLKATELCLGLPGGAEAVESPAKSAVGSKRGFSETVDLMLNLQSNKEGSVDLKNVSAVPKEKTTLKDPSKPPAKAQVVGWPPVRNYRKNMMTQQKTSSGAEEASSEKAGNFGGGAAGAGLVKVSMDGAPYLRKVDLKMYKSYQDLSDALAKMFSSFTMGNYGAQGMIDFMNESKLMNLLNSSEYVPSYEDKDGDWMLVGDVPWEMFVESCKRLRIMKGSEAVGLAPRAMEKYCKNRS

IAA7 = biological target: T2, IAA7 (Arabidopsis thaliana, UniProt Q38825); test: BLI
T2 chain: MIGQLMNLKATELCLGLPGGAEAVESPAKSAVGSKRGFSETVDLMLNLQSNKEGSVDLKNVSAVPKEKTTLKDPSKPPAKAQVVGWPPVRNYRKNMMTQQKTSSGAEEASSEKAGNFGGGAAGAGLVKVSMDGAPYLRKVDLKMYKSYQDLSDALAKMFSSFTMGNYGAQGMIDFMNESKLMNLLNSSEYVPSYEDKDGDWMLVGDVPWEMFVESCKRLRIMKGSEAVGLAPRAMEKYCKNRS

## IAA7 (from UniProt Q38825)
[1]
  Kd: 30 nM
[2]
  Kd: 20000 nM

## O=C(O)Cc1c[nH]c2ccccc12 [IAA, indole-3-acetic acid]
TIR1
  synthetic yeast system, TIR1-dependent degradation of YFP-IAA7 and YFP-IAA17 by: signals from YFP-IAA7 and YFP-IAA17 decreased rapidly upon addition of IAA

B1: TIR1 (protein)
chain: MQKRIALSFPEEVLEHVFSFIQLDKDRNSVSLVCKSWYEIERWCRRKVFIGNCYAVSPATVIRRFPKVRSVELKGKPHFADFNLVPDGWGGYVYPWIEAMSSSYTWLEEIRLKRMVVTDDCLELIAKSFKNFKVLVLSSCEGFSTDGLAAIAATCRNLKELDLRESDVDDVSGHWLSHFPDTYTSLVSLNISCLASEVSFSALERLVTRCPNLKSLKLNRAVPLEKLATLLQRAPQLEELGTGGYTAEVRPDVYSGLSVALSGCKELRCLSGFWDAVPAYLPAVYSVCSRLTTLNLSYATVQSYDLVKLLCQCPKLQRLWVLDYIEDAGLEVLASTCKDLRELRVFPSEPFVMEPNVALTEQGLVSVSMGCPKLESVLYFCRQMTNAALITIARNRPNMTRFRLCIIEPKAPDYLTLEPLDIGFGAIVEHCKDLRRLSLSGLLTDKVFEYIGTYAKKMEMLSVAFAGDSDLGMHHVLSGCDSLRKLEIRDCPFGDKALLANASKLETMRSLWMSSCSVSFGACKLLGQKMPKLNVEVIDERGAPDSRPESCPVERVFIYRTVAGPRFDMPGFVWNMDQDSTMRFSRQIITTNGL
modifications: oxIAA (saturating)
IAA7
  Kd: 200 nM
